Results reported in PMC5509211 (2017).
No end group written: not given here.

Legend:
[1] = target: actin filaments (contractile ring) (Schizosaccharomyces pombe, UniProt P10989); experiment: live-cell fluorescence titration
[2] = target: actin filaments (endocytic patches) (Schizosaccharomyces pombe, UniProt P10989); experiment: live-cell fluorescence titration

- Kd [1]: 6.2 µM
- Kd [2]: 20 µM
Binder: MGVADLIKKFESISKEE (also: mEGFP fusion) [mEGFP-Lifeact]
